Where two headings read alike, the source gives them in different places.
How the values were obtained:
[1] = MicroPET imaging in Panc02 tumor-bearing mice; design: species or system C57BL/6 mice; details: C57BL/6, mouse, in vivo, iv, 7.4 MBq, total radioactivity; for tissue uptake at 0.5 h: 0.5 h p.i.; for tissue uptake at 1 h: 1 h p.i.; for tissue uptake at 2 h: 2 h p.i.; for tissue uptake at 4 h: 4 h p.i.
Method: All animal studies were approved by the Animal Care and Use Committee of Xiamen University and carried out in compliance with the national laws related to the conduct of animal experiments. Panc02 tumor model was generated by subcutaneous injection of 5 × 10^6 tumor cells suspended in 100 μL PBS, into the upper limb flank of C57BL/6 mice (Beijing Vital River Laboratory Animal Technology Co., Ltd.). The tumor mice were subjected to microPET and biodistributions studies when the tumor volume reached 200-300 mm^3.
PET scans were performed by using Inveon small-animal PET scanner (Siemens Preclinical Solution). About 7.4 MBq of [^68Ga]Ga-FAPI-RGD was given to Panc02 tumor xenografted mice through tail vein injection for the 10-min static PET imaging. At 0.5, 1, 2 and 4 h post-injection (p.i.), mice were anaesthetized and placed on imaging chamber of PET/CT scanner for image acquisition. […] The blocking study was performed by injecting unlabeled c(RGDfK), FAPI-02, or RGDfK+FAPI-02, before administering [^68Ga]Ga-FAPI-RGD. PET images were reconstructed using three-dimensional ordered-subset expectation-maximization (3D OSEM) algorithm and with a Maximum a Posteriori (MAP) method and analyzed through drawing regions of interest (ROIs).

[2] = in vivo; design: species or system C57BL/6 mice; details: C57BL/6, mouse, iv, 740 kBq, total radioactivity
Method: All animal studies were approved by the Animal Care and Use Committee of Xiamen University and carried out in compliance with the national laws related to the conduct of animal experiments. […] Tissue and organs of interest were collected, wet weighted and activity measured by a γ-counter. […] The results were calculated as percentage of injected dose per gram (%ID/g).

[3] = system: Panc02 tumor cells; test: Cellular uptake assay on Panc02 tumor cells; assay type: cell-based; details: 37 kBq, 37 °C, 10, 30, 60, 90 and 120 min, n = 4
Method: Panc02 cell line was purchased from the American Type Culture Collection (ATCC), and cultured in Dulbecco modified Eagle medium (DMEM) containing 10% (v/v) fetal bovine serum (FBS) at 37 °C with 5% CO2. Panc02 cells were seeded in 24-well plates with 2 × 10^5 cells per well. […] Then, the medium was removed and the cells were washed twice with cold PBS (pH 7.4) and subsequently lysed with 0.5 mL of NaOH (1 M). In the blocking studies, excess amount of unlabeled FAPI-RGD, FAPI-02, RGDfK, FAPI-02+RGDfK (10 μg/well) were added as inhibitors into the cells along with [^68Ga]Ga-FAPI-RGD. After 1 h, the cells were treated in the same way. Cell lysates was collected and the radioactivity was determined using a γ counter.

[4] = system: primary tumors and metastases; test: Comparison of [^68Ga]Ga-FAPI-RGD and 2-[^18F]FDG PET/CT tumor uptake in patients
Method: (§1) All patients underwent [^68Ga]Ga-FAPI-RGD PET/CT and 2-[^18F]FDG PET scanning using a dedicated PET/CT scanner (Biograph mCT64, Siemens Healthcare).
(§2) [^68Ga]Ga-FAPI-RGD PET/CT The CT scans were performed with a tube voltage of 120 kV, an effective tube current of 70-120 mA (Care Dose 4D), and a slice thickness of 3 mm. Serial whole-body dynamic PET scans were immediately performed after the CT scan in 3D acquisition mode (matrix: 200 × 200). The whole body (from the top of skull to the middle of femur) of each patient was covered by 6 bed positions. The acquisition duration was 30 s/bed position at 3 min after injection; 1 min/bed position at 15 min after injection; and 2 min/bed position at 30, 60, and 120 min after injection.
(§3) 2-[^18F]FDG PET/CT All patients were fast at least 6 h to keep and images were obtained at 60-80 min after the intravenous injection of 2-[^18F]FDG (3.70 MBq [0.10 mCi]/kg). 2-[^18F]FDG was purchased from Fuzhou PET-Tracer Co. Ltd, and the radiochemical purity was more than 95%.
(§4) For [^68Ga]Ga-FAPI-RGD PET/CT, only PET/CT datasets acquired approximately 1 h after injection were used for analysis.

[5] = human, in vivo
Method: Organ delineation and activity accumulation at each imaging time point was determined using Hybrid-Dosimetry software (Hermes Medical Solutions, Sweden). Time-activity curve fitting and subsequent dose calculation was performed using OLINDA/EXM, version 2.2.0. Kidneys, liver, spleen, urinary bladder content, L2-L4 lumbar vertebrae for red marrow dosimetry, heart content, lung, brain, pancreas, thyroid, salivary glands and stomach contents were included as source organs. Red bone marrow dosimetry was done by image-based 3D volumetric analysis of L2-L4 vertebrae, which is considered to constitute 6.7% of the total bone marrow. The ROIs for the above organs were drawn from the examination that had the best organ delineation and then were copied onto all other time points to calculate the time-activity curves. The mono- or bi-exponential curve fitting parameters were applied to derive the best curve fit for the residence time of activity in the source organ. Once all the organ residence times were derived from the kinetic input model, they were entered in the adult female or male model data to derive the absorbed doses to all the organs, including the whole-body effective dose, and generated in mSv/MBq and rem/mCi. The time-activity graphs of various organs were generated using GraphPad Prism software.

[6] = system: malignant tumors and normal organs; test: clinical; details: human, in vivo
Method: (§5) This study was approved by the institutional review board of the First Affiliated Hospital, Fujian Medical University and registered at ClinicalTrials.gov (NCT05515783). All patients signed an informed consent form before participation and all procedures were conducted in accordance with the Declaration of Helsinki. The inclusion criteria were as follows: […] (2) primary malignancies confirmed by pathology. The exclusion criteria were patients: (1) who suffered from severe hepatic and renal insufficiency; (2) pregnant or lactational women.

[7] = clinical; details: human, in vivo, total radioactivity
Method: as §5

[8] = assay type: physicochemical
Method: Radiolabeling of ^68Ga was performed by incubation with 50 μg FAPI-RGD in NaOAc buffer solution (pH = 4.5) at 95 ℃ for 10 min. The product was purified by C18 column extraction. The radiochemical purity and stability of [^68Ga]Ga-FAPI-RGD were determined by radio-HPLC.
FAPI-RGD and its intermediate products were characterized by TOF-MS and HPLC (Figure S1-9). The radiolabeling yield and radiochemical purity of [^68Ga]Ga-FAPI-RGD were consistently over 99%. […] The radiochemistry purity was over 99% within 4 h.

[9] = clinical; details: human, in vivo, total radioactivity; remark: listed apart in the source
Method: as §1, §2, §3, §4

[10] = i.v. tail vein, n = 3, ROI, mean ± SD
[11] = average SUVmean of thyroid glands

N=C(N)NCCC[C@@H]1NC(=O)[C@H](CCCCNC(=O)CN2CCN(CC(=O)O)CCN(CC(=O)O)CC2)NC(=O)[C@@H](Cc2ccccc2)NC(=O)[C@H](CC(=O)O)NC(=O)CNC1=O [[^68Ga]Ga-RGDfK, metal not drawn, reference compound]
tissue uptake at 0.5 h [1, 10]: 3.96 ± 0.24 %ID/g | tissue uptake at 1 h [1, 10]: 3.4 ± 0.16 %ID/g | tissue uptake at 2 h [1, 10]: 2.89 ± 0.09 %ID/g | tissue uptake at 1 h [2]: 3.51 ± 0.47 %ID/g | cellular uptake compared with [^68Ga]Ga-FAPI-RGD [3]: less than [^68Ga]Ga-FAPI-RGD at all the time points

OC[C@H]1O[C@@H](O)[C@H]([18F])[C@@H](O)[C@@H]1O [2-[^18F]FDG, reference compound]
mean SUVmax in primary tumors ([4]; 6 patients, FAPI-RGD approximately 1 h after injection, FDG 60-80 min after injection, mean ± SD, p = 0.459): 10.3 ± 6.9 | SUVmax of primary lesion, patient with renal cell carcinoma ([4]; single patient, intra-individual comparison): 2.7 | SUVmax of metastasis ([4]; three patients with metastatic foci, mean ± SD, p = 0.373): 7.6 ± 5.3

N#C[C@@H]1CCCN1C(=O)CNC(=O)c1ccnc2ccc(OCCCN3CCN(C(=O)CCOCCOCCNC(=O)[C@H](CCC(=O)NCCOCCOCCC(=O)NCCCC[C@@H]4NC(=O)[C@@H](Cc5ccccc5)NC(=O)[C@H](CC(=O)O)NC(=O)CNC(=O)[C@H](CCCNC(=N)N)NC4=O)NC(=O)CN4CCN(CC(=O)O)CCN(CC(=O)O)CC4)CC3)cc12 [[^68Ga]Ga-FAPI-RGD, metal not drawn]
tissue uptake at 0.5 h [1, 10]: 5.25 ± 0.54 %ID/g | tissue uptake at 1 h [1, 10]: 5.13 ± 0.65 %ID/g | tissue uptake at 2 h [1, 10]: 5.33 ± 0.27 %ID/g | tissue uptake at 4 h ([1]; i.v. tail vein, n = 3, ROI, mean ± SD, read-out: tumor uptake (microPET)): 5.04 ± 0.16 %ID/g | tissue uptake at 4 h ([1]; n = 3, read-out: blood uptake (microPET)): 1.4 ± 0.08 %ID/g | tissue uptake at 4 h ([1]; n = 3, read-out: kidney uptake (microPET)): 2.78 ± 0.46 %ID/g | tissue uptake at 4 h ([1]; n = 3, read-out: liver uptake (microPET)): 1.83 ± 0.39 %ID/g | tissue uptake at 0.5 h [2]: 6.16 ± 0.46 %ID/g | tissue uptake at 1 h [2]: 5.95 ± 0.43 %ID/g | tissue uptake at 2 h [2]: 5.78 ± 0.28 %ID/g | tissue uptake at 4 h [2]: 5.79 ± 0.22 %ID/g | effective dose [5]: 1.94 mSv/100 MBq | total body effective dose for administration of 185 MBq (5.0 mCi) [5]: 3.6 mSv | Estimated absorbed dose, Adrenals ([5]; iv): 1.04E-02 mSv/MBq | Estimated absorbed dose, Brain ([5]; iv): 3.38E-03 mSv/MBq | Estimated absorbed dose, Esophagus ([5]; iv): 7.55E-03 mSv/MBq | Estimated absorbed dose, Eyes ([5]; iv): 5.47E-03 mSv/MBq | Estimated absorbed dose, Gallbladder Wall ([5]; iv): 8.35E-03 mSv/MBq | Estimated absorbed dose, Heart Wall ([5]; iv): 2.04E-02 mSv/MBq | Estimated absorbed dose, Kidneys ([5]; iv): 3.24E-02 mSv/MBq | Estimated absorbed dose, Left colon ([5]; iv): 7.80E-03 mSv/MBq | Estimated absorbed dose, Liver ([5]; iv): 1.45E-02 mSv/MBq | Estimated absorbed dose, Lungs ([5]; iv): 2.33E-02 mSv/MBq | Estimated absorbed dose, Osteogenic Cells ([5]; iv): 1.07E-02 mSv/MBq | Estimated absorbed dose, Pancreas ([5]; iv): 3.06E-02 mSv/MBq | Estimated absorbed dose, Prostate ([5]; iv): 1.24E-02 mSv/MBq | Estimated absorbed dose, Rectum ([5]; iv): 1.06E-02 mSv/MBq | Estimated absorbed dose, Red Marrow ([5]; iv): 1.45E-02 mSv/MBq | Estimated absorbed dose, Right colon ([5]; iv): 7.53E-03 mSv/MBq | Estimated absorbed dose, Salivary Glands ([5]; iv): 2.09E-02 mSv/MBq | Estimated absorbed dose, Small Intestine ([5]; iv): 8.16E-03 mSv/MBq | Estimated absorbed dose, Spleen ([5]; iv): 2.25E-02 mSv/MBq | Estimated absorbed dose, Stomach Wall ([5]; iv): 1.20E-02 mSv/MBq | Estimated absorbed dose, Testes ([5]; iv): 7.13E-03 mSv/MBq | Estimated absorbed dose, Thymus ([5]; iv): 7.41E-03 mSv/MBq | Estimated absorbed dose, Thyroid ([5]; iv): 3.31E-02 mSv/MBq | Estimated absorbed dose, Total Body ([5]; iv): 8.92E-03 mSv/MBq | Estimated absorbed dose, Urinary Bladder Wall ([5]; iv): 2.26E-01 mSv/MBq | effective dose ([5]; iv): 1.94E-02 mSv/MBq | decline of thyroid SUVmean from 3 min to 2.0 h [6]: 62.5% | main excretory organs [6]: kidneys were the main excretory organs | SUV at 0.05 h [7, 11]: 7.8 SUV | SUV at 2 h [7, 11]: 3 SUV | SUV at 0.05 h ([7]; average tumor SUVmax): 7 SUV | SUV at 0.25 h ([7]; average tumor SUVmax): 8 SUV | SUV at 0.5 h ([7]; average tumor SUVmax): 8 SUV | SUV at 1 h ([7]; average tumor SUVmax): 8.3 SUV | SUV at 2 h ([7]; average tumor SUVmax): 9.1 SUV | time of good stability in saline [8]: at least 4 h | SUV at 1 h ([9]; SUVmax of metastasis): 6.5 ± 2.6 SUV | SUV at 1 h ([9]; SUVmax of primary lesion, patient with renal cell carcinoma): 5.1 SUV | SUV at 1 h ([9]; mean SUVmax in primary tumors): 8.9 ± 3.2 SUV

Source: publication PMC9576616, “Synthesis, preclinical evaluation and radiation dosimetry of a dual targeting PET tracer [^68Ga]Ga-FAPI-RGD” (Theranostics, 2022)
